We go through seven molecules from patent publication US20220088190A1 (University of Pennsylvania, published 2022).

In assay [1] the target is T1, HLA-A*11:01 (human).
T1 construct: the construct is not described
As to the kind of experiment: peptide-MHC binding, competitive fluorescence polarization assay.

Assay [2] concerns the target T2, HLA-A*03:01 expressed on monoallelic K562 RAS TMG cells (human).
T2 construct: also called K562-A*03:01
As to the kind of experiment: HLA class I immunoprecipitation, peptide elution and tandem MS/MS from monoallelic K562 RAS TMG cells (FIG. 8D).

The target in assay [3] is T3, HLA-A*11:01 expressed on monoallelic K562 RAS TMG cells (human).
T3 construct: also called K562-A*11:01
The assay can be described thus: HLA class I immunoprecipitation, peptide elution and tandem MS/MS from monoallelic K562 RAS TMG cells (FIG. 8I).

The target in assay [4] is T2, HLA-A*03:01 expressed on monoallelic …. As to the kind of experiment: HLA class I immunoprecipitation, peptide elution and tandem MS/MS from monoallelic K562 RAS TMG cells (FIG. 8A).
The target of assay [5] is T3, HLA-A*11:01 expressed on monoallelic …. The assay can be described thus: HLA class I immunoprecipitation, peptide elution and tandem MS/MS from monoallelic K562 RAS TMG cells (FIG. 8F).
The target in assay [6] is T4, HLA-A*03:01 (human).
T4 construct: the construct is not described
As to the kind of experiment: peptide-MHC binding, competitive fluorescence polarization assay. A general note: Polarisation of emitted light reports the rotation of a fluorescent probe.

Assay [7] addresses T2, HLA-A*03:01 expressed on monoallelic …. The assay can be described thus: HLA class I immunoprecipitation, peptide elution and tandem MS/MS from monoallelic K562 RAS TMG cells (FIG. 8C).
Assay [8] addresses T3, HLA-A*11:01 expressed on monoallelic …. As to the kind of experiment: HLA class I immunoprecipitation, peptide elution and tandem MS/MS from monoallelic K562 RAS TMG cells (FIG. 8G).
Assay [9] shares this target. As to the kind of experiment: HLA class I immunoprecipitation, peptide elution and tandem MS/MS from monoallelic K562 RAS TMG cells (FIG. 8E).
Assay [10] has as its target T5, HLA-B*07:02 (human).
T5 construct: the construct is not described
The assay can be described thus: peptide-MHC binding, competitive fluorescence polarization assay.

Assay [11] concerns the target T6, HLA-B*07:02 expressed on monoallelic K562 RAS TMG cells (human).
T6 construct: also called K562-B*07:02
The assay can be described thus: HLA class I immunoprecipitation, peptide elution and tandem MS/MS from monoallelic K562 RAS TMG cells (FIG. 8J).

B1: mRAS peptide VV_C (RAS G12C), VVGACGVGK (peptide)
peptide: VVGACGVGK
notes: 9-mer mutant RAS short peptide; also called C-9
As for B1, in [1], the binding result is on record as “binds”.

B2: mRAS peptide VV_R (RAS G12R), VVGARGVGK (peptide)
peptide: VVGARGVGK
notes: 9-mer mutant RAS short peptide; also called R-9
As for B2, the binding result in assay [1], in assay [2] and in assay [3] was “binds” throughout.

B3: mRAS peptide VVV_D (RAS G12D), VVVGADGVGK (peptide)
peptide: VVVGADGVGK
notes: 10-mer mutant RAS short peptide; also called D-10
In the case of B3, the binding result in [1], in assay [4] and in [5] was “binds” throughout.

B4: mRAS peptide VVV_V (RAS G12V), VVVGAVGVGK (peptide)
peptide: VVVGAVGVGK
notes: 10-mer mutant RAS short peptide; also called V-10
In the case of B4, the binding result in assay [6], in assay [1], in assay [7] and in assay [8] was “binds” in each case.

B5: mRAS peptide VV_D (RAS G12D), VVGADGVGK (peptide)
peptide: VVGADGVGK
notes: 9-mer mutant RAS short peptide; also called D-9
As to B5, the binding result in assay [1] and in assay [9] was “binds” throughout.

B6: mRAS peptide VVV_R (RAS G12R), VVVGARGVGK (peptide)
peptide: VVVGARGVGK
notes: 10-mer mutant RAS short peptide; also called R-10
On to B6, for which the binding result in assay [6] and in [1] was “binds” in each case.

B7: mRAS peptide GA_R (RAS G12R), GARGVGKSAL (peptide)
peptide: GARGVGKSAL
notes: 10-mer mutant RAS short peptide; also called R-10 (B*07:02 panel)
Turning to B7, the binding result in assay [10] and in [11] was “binds” each time.
